Data from paper PMC3143144.

Experiments:
[1] = target: αE2 (isolated E2 DNA-recognition helix peptide) (Human papillomavirus type 16?) (UniProt P06790); assay: EMSA
[2] = target: αE2 (isolated E2 DNA-recognition helix peptide) (Human papillomavirus type 16?) (UniProt P06790); assay: DNA melting

Chain of UniProt P06790 (P06790 whole entry): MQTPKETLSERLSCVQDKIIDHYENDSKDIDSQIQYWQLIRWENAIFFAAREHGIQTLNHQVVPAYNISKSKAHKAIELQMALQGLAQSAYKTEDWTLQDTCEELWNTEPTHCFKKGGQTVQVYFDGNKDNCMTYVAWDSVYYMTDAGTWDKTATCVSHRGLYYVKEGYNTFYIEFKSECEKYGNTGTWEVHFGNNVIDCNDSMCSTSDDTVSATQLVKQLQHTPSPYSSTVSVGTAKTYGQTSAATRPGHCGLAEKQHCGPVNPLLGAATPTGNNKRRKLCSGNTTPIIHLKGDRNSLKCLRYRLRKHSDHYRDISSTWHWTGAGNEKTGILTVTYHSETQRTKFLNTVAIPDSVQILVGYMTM

| Sequence | Kd [1] [µM] | binding signal [2] |
| --- | --- | --- |
| ACATGGACCTGTCAAGTA (double strand) [Iset non E2-non Dst] | 50 | – |
| GTAGCACAAATCGGTTGA (double strand) [hemisite E2-Dst] | 6.3 | 2 C (ΔTm) |
